{"source": "paper PMC5704290", "tested_on": "NCCC(=O)O", "assay": "purified protein", "conditions": "pH 7.8; 25.0 °C"}
{"substance": "(Mycobacterium tuberculosis H37Rv)", "values": [{"measurement": "Km", "value": "610 ± 10", "unit": "µM"}, {"measurement": "kcat/Km", "value": 2600, "unit": "M⁻¹ s⁻¹"}]}
